Measurements reported in patent publication US20130072665A1.
Blank lines part the entries; values can stand above or below the substance they belong to.

Experiments:
[1] = biological target: cynomolgus monkey PCSK9 (cynomolgus monkey); experiment: BIAcore, antibody immobilised, pH 7.4
[2] = biological target: cynomolgus monkey PCSK9 (cynomolgus monkey); experiment: KinExA solution equilibrium
[3] = biological target: cynomolgus monkey PCSK9 (cynomolgus monkey); experiment: BIAcore solution equilibrium, column To Cyno PCSK9
[4] = biological target: human PCSK9 (proprotein convertase subtilisin kexin type 9) (human) (UniProt Q8NBP7); experiment: BIAcore solution equilibrium, pH 7.4
[5] = biological target: human PCSK9 (proprotein convertase subtilisin kexin type 9) (human) (UniProt Q8NBP7); experiment: BIAcore solution equilibrium, pH 5.5
[6] = biological target: human PCSK9 (proprotein convertase subtilisin kexin type 9) (human) (UniProt Q8NBP7); experiment: BIAcore solution equilibrium, pH 6.0
31H4, anti-PCSK9 huIgG4 = experiment: KinExA solution equilibrium, % free 31H4.1 against [cPCSK9]; curve with diamonds; 10 pM or 100 pM 31H4 series not labelled
Chain of 31H4, anti-PCSK9 huIgG4 (heavy, as listed by the source, chain 1 of 2): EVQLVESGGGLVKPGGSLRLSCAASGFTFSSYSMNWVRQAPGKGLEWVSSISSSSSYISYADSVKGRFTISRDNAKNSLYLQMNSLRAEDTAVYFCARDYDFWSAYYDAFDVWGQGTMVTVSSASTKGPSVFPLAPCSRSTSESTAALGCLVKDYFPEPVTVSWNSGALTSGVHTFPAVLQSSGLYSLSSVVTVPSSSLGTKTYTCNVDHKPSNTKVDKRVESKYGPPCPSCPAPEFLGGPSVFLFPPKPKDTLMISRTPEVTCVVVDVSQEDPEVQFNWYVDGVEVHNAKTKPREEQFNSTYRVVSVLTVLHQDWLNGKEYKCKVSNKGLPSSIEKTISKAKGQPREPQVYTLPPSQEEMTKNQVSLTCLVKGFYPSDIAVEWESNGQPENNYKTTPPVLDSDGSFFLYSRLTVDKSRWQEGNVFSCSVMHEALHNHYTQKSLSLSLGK
Chain of 31H4, anti-PCSK9 huIgG4 (light, as listed by the source, chain 2 of 2): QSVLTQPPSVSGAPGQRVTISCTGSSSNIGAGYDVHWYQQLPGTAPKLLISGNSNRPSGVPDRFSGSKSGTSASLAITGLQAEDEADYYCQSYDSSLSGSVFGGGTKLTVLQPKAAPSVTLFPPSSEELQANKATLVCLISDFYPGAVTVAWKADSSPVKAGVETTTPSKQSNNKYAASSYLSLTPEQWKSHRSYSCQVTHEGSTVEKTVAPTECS

Kd [1]: 190 pM
Kd [2]: 2 pM
Substance: 31H4, anti-PCSK9 huIgG4 (antibody)

Kd [3]: 8 pM
Kd [4]: 19 pM
Kd [5]: 28 pM
Kd [6]: 6 pM
Substance: AMG145 (antibody)

IC50 (read off the curve) (31H4, anti-PCSK9 huIgG4): 10 pM
Substance: cynomolgus monkey PCSK9 (from UniProt A0A7N9D9N8 150-747) (enzyme)
